Patent US20240094220A1 (NORTHEASTERN UNIVERSITY, published 2024)

Biological target: T1, mouse PD-L1 on the surface of DC 2.4 dendritic cells (mouse, UniProt Q9EP73 19-290)
T1 construct: whole, on cells; also called Programmed Death-Ligand 1
Assay: flow cytometry on DC 2.4 cells, purified Nb detected with fluorophore-conjugated anti-FLAG antibody
Description: While the majority of anti-PD-L1 and anti-CTLA-4 Nbs are currently produced intracellularly in E. coli, the lengthy processes of lysing bacteria and removing endotoxins may dramatically increase costs and demand a centralized facility for production. […] Of note, in the shake-flask expression system, anti-PD-L1 and anti-CTLA-4 Nbs can be secreted into the supernatant of B. subtilis culture at ˜15 mg per liter of culture. To further confirm that these Nbs remain functional following secretion and purification, the mouse dendritic cell line DC 2.4 was chosen because it is known to constitutively express the immunoinhibitory receptor PD-L1 on the cell surface (FIG. 5, Panel A), and it was also validated the expression of PD-L1 by a commercial antibody specific for mouse PD-L1. […] The stained samples were analyzed by flow cytometry and fluorescence microscopy—results of flow cytometry indicated the specific binding of purified anti-PD-L1 Nbs and no binding for the anti-caffeine Nb control in comparison to the unstained sample (FIG. 5, Panel B). […] To further test whether the purification step could be bypassed by directly using bacterial supernatant, 200 μl of the original B. subtilis supernatant containing the anti-PD-L1 Nb was applied to stain ˜one million DC 2.4 cells for fluorescence microscopy.

T1 sequence (Q9EP73 19-290): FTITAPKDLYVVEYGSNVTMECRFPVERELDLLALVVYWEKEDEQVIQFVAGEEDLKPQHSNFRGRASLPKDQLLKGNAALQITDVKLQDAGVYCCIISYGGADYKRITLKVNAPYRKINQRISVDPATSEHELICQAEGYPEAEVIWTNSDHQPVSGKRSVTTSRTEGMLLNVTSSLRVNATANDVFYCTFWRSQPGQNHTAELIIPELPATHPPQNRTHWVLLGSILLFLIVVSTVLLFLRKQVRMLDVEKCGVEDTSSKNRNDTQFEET

binding result: no binding
B1: anti-caffeine nanobody secreted from B. subtilis (CBD fusion, with FLAG epitope) (VHH, not shown: large carriers)
VHH: QVQLVESGGGLVQAGGSLRLSCTASGRTGTIYSMAWFRQAPGKEREFLATVGWSSGITYYMDSVKGRFTISRDKGKNTVYLQMDSLKPEDTAVYYCTATRAYSVGYDYWGQGTQVTVSS
notes: Negative control in the PD-L1 staining; also called anti-caffeine Nb; CBD-anti-caffeine Nb
